Source: article PMC3288515
Where two headings read alike, the source gives them in different places.

Tests used:
Assay in all cases: EMSA
[1] = target: T1, STAT5 (STAT5a cDNA used for the retroviral construct) (UniProt P42230 1-793)
PU.1 [2] = target: T2, PU.1 (UniProt P17433 1-272)
PU.1 [3] = target: T2, PU.1; remark: listed apart in the source
[4] = target: T1, STAT5 (STAT5a cDNA used for the …); remark: listed apart in the source

T1 sequence (P42230 whole entry): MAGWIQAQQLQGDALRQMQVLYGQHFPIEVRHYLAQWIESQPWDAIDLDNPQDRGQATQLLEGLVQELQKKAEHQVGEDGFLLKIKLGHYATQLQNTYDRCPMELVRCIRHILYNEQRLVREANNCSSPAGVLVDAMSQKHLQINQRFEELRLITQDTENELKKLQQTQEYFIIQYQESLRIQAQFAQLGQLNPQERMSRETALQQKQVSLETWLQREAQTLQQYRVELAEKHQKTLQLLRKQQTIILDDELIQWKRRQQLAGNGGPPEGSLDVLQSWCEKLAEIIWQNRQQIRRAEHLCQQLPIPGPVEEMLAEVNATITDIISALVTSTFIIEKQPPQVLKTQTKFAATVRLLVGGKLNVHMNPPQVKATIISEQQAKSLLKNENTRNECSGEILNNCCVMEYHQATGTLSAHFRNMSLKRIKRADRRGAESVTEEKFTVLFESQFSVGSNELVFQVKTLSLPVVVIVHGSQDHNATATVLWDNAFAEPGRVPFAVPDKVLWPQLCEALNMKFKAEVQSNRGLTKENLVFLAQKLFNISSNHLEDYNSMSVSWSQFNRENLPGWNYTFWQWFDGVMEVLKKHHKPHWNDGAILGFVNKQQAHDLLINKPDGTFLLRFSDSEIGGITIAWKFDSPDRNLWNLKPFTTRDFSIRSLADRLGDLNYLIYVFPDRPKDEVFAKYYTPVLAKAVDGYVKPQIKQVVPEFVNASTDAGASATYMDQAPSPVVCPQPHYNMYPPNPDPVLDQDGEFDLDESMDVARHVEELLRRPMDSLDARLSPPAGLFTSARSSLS

Row | Binder | binding result [1] | binding result (PU.1 [2]) | binding result (PU.1 [3]) | binding result [4]
1 | κE3' PU.1-STAT5 probe (dsDNA) DNA 1: CTTTGAGGAACTGAAAACAGAACCT DNA 2: AGGTTCTGTTTTCAGTTCCTCAAAG | binds | binds | – | –
2 | SV40 PU.1 probe (dsDNA) DNA 1: TGAAATAACCTCTGAAAGAGGAACTTGGTTAGGTA DNA 2: TACCTAACCAAGTTCCTCTTTCAGAGGTTATTTCA | – | – | binds | no binding
